# Experimental data from the DeepSol protein solubility set.
# Assay: soluble on expression in E. coli; label from the status in PepcDB or PDB records
row,Sequence,soluble on expression in E. coli
1,MHLHISSIPHRNSNNSKGGVLDATGPMLSAKRGALLLQAYHRPGEVISYKAGDYHLVPKKFTVGKRIAVRSYLDRNRTELSDRTFMPQKNWFRPYDLQDGCFDRDHERLSYRFYNLETKVIWKAFDTPELIGMLLHDETVKGNSGMYAPDMLDAALHYTREARYWRCIGITKPFYDRNTLRAHCWEDNGLQVGTLVMSQAMRHALMDLERAVRRKELGLEPNYLWDRWGPIGFIDGARADYLPRFEHNPYVDPDGVDVTEIDVLPFNTHEQIRERYRDFIEPDTAPFEEVFRSPSHGSLTTLADIPNASVVALYKDLKLKAGTPVAGDAVELAPADVRTLFYLSANPEWRAVADGKASWEEVVDAMQPVQAELDEKIDAARLLQNTRHNAERVRAFFEEKCGFHDFMYTPDKTITAAVLCYLTELRRICTETAWGAALAKCLTDMERVQGMGRDAFLVYRHIEDAILDKKRRLWAGRFAGESHEESTLDYLLENFGRRAERPRNVGTTGVEFDREQEPIGRQVQRRVLDSDKANKLAEIRRSRGKMWSKKRSVFDALHEKQLQNFNYGVH,soluble
2,MHPDQKKTFKEKNDIRKKLFNSTKEERLDWRKMKDEKKRKNEEKIIKEAEEAKKAKIEKVDHTPPFTISIAVPGQFLNNAQSAELRTYMAGQIARAATLYRVDEIIIYDESCRMTDEAVNAYYNGTWQGNLIPAETNYEGCFYLAKILEYLECPQYLRKDLFPIQKPLKNAGLLNPLDAQHHLKYDEKTLRFREGVVLKKRSKDGRGPICNIGLEKEFEIDSDAVQLPPYTRVTVEIKNLTEQCKLYRGSITSGATVTRETGLYWGYSVRLMTGLQKVLQAKKFDIVAGVSPRGKLASQMDVCILNKPKILLVFGGVAGVDAAVESEELAEWRRAEDAFDVLIRTTSLSNGSRSERVEENVLSVLAQVQCHLETLNAL,not soluble
3,MHQLWTYDPAAGTVEVGAGTTNEGLVDGPGEEAWFAQPSGLAATADRLWLADSETSALRWVDLDGAVHTAVGTGLFDFGHRDGDAEQALLQHPLGVTALPDGSVAVSDTYNHALRRYDPATGEVTTLATDLREPSDAVLVGDDIVVVESARHRLTRLRLPEEAVRVASVAHRTQRAATEVAPGRLQLDVIFQAPAGQKLDTRYGPSTRLLVSSTPPELLLNGEGADPDLSRTLELNPAIPEGVLHVSAMAASCDDDPANEYPACHVHQQDWGVPVRLTEGGADRLPLVLAGMDALEHHHHHH,not soluble
4,MHQRCNTRGGQDMGFDSRAAKKLKAMFKQQCRDAGAVCWLCGQPINYDAPPNSRDSFEPDHFYPQATHPELAEDPENLRPSHCSCNRSRKDGVPAPSLGSLSEQW,not soluble
5,MHRVHGTLHASFTIECRNMFKRFFLALIGVGILLSESTQASESPPYSMVLLTENFPPFNMAVDGKNFAQENNIDGIAAEVVREMFKRANIGYSMTLRFPWDRVYKLALDKPGYGVFSTTRLPEREKLFKWIGPLGSYDWIMLARGDSPITLASLEQAKDYRIGAYKGDAIGERLNAMGLNPILMLRDRDNVKKLANGQIDLWAVGDPVGRYLAKLEGVSGFKTALRFNSAELYLAVNKSTPDEIVNRLQAALDQMRTEGWVDAVKARYQLEHHHHHH,soluble
6,MHSAVFSPDAPYCGAAGSNHLCEAVALCQSILARYRRTGTSFSSTELKAIQALRTEFPDTAQEPAANSAASPDQTTKDFLSILDDATDVPHNPQNDIVAFVEECCDNTKEPTVLFAAINERISAVTCSRNVRTYMVIANDNLLWDPVNGVAALIDDVTPLGKCAQARNMLTIANTLYIPLWFRSELVGCVEVPGACIPRDKATCAQLLLRCVTVAVRNSINISIRKREANKIEAMVGMATRLARDTLEESVLVQSIINTAKTLTESDRCSIFLVKADGSLEAHFEDGNVVVLPAGTGIAGHVAESGAVVNIPNAYEDDRFHRSVDKVTGYHTRTILCLPIAFEGTIVAVAQLINKLDMVTQSGQRLPRVFGRRDEELFETFSMFAAASLRNCRINETLLKEKKKSDAILDVVALLSNTDIRDVDSIVRHVLHGAKKLLNADRSSMFLLDKERNELYSKMADSANEIRFPCGQGIAGTVAESGVGENIMDAYADSRFNSAVDRQLGYRTQSILCEPITLNGEVLAVVQLVNKLGDDGSVTCFTPMDRETFQVFSLFAGISINNSHLLEFAVNAGREAMTLSLQRNSITAQRAPKSVKVIAVTPEEREAVMSIDFGGAYDFTSPGFNLFEVREKYSEPMDAAAGVVYNLLWNSGLPEKFGCREQTLLNFILQCRRRYRRVPYHNFYHVVDVCQTLHTYLYTGKASELLTELECYVLLVTALVHDLDHMGVNNSFYLKTDSPLGILSSASGNNSVLEVHHCSLAIEILSDPAADVFEGLSGQDVAYAYRALIDCVLATDMAKHADALSRFTELATSGFEKDNDTHRRLVMETLIKAGDVSNVTKPFETSRMWAMAVTEEFYRQGDMEKEKGVEVLPMFDRSKNNELARGQIGFIDFVAGKFFRDIVGNLFHGMQWCVDTVNSNRAKWQEILDGRRDSIRSSIV,not soluble
7,MHVIDLSYFVKIYRSKNKHISVNFLRHLHRAGDLHLSGTTRCIYEDVIMKKCLTLLIATVLSGISLTAYAAQPMSNLDSGQLRPAGTVSATGASNLSDLEDKLAEKAREQGAKGYVINSAGGNDQMFGTATIYK,soluble
8,MHYDVIVIGGGPSGLMAAIGAAEEGANVLLLDKGNKLGRKLAISGGGRCNVTNRLPLDEIVKHIPGNGRFLYSAFSIFNNEDIITFFENLGVKLKEEDPGRMFPVSNKAQSVVDALLTRLKDLGVKIRTNTPVETIEYENGQTKAVILQTGEVLETNHVVIAVGGKSVPQTGSTGDGYAWAEKAGHTITELFPTEVPILSNEPFIRDRSLQGLALRDINLSVLNPKGKAIISHKMDMLFTHFGLSGPAALRCSQFVVKALKKFKTNTIQMSIDALPEENSEQLFQRMLKQMKEDPKKGIKNVLKGYVPERYFLFLLEKNEIDGSEQAGQVSHEKIRALVKDFKEFTVNVNGTQSIEKAFVTGGGVSVKEINPKEMSSKFTNGLYFCGEVLDIHGYTGGYNITSALVTGRIAGTTAGENAKMQY,soluble
9,MHYPEPISKLIDSFMKLPGIGPKTAQRLAFHTLDMKEDDVVQFAKALVDVKRELTYCSVCGHITENDPCYICEDKQRDRSVICVVEDDKDVIAMEKMREYKGLYHVLHGSISPMDGIGPEDINIPSLIERLKSDEVSELILAMNPNLEGESTAMYISRLVKPIGIKVTRLAQGLSVGGDLEYADEVTLSKAIAGRTEM,not soluble
10,MIAAEAFAPHAALAQDLIPHAADTGDGSHDLAHIHRVFRNAMRIHAGEGGDGNVLAASVLLHDCVAVEKNSPLRAQASRLAAEKASGILAGLGWQKQDIDAAAHAITTHSFSANIEPQTLEAKILQDADRLDAIGMVGAARCFYIAGRMGSALYDPADPLAKERPLDDRAFAIDHFETKLFKLADGFRTETGRQMAKARHERLKQVLDLFLDEILEHHHHHH,soluble
11,MIAKEKILKGFETAEARWARFGPYYAMFPLEFAFDVVEKYSKNGDYIIDPFAGRCSSIYAGGVLGRNSLGLEINPVGWLYGTVKLHPAEKEEVIDRLLEIYSKRNYYNRAIQKMPEFYRICYCDEVLKFLLAARTHLDWRNNKVDATLMSILLIYLHAKIGEGLSNQMRMTKSMGMNYSVQWWKKNNMTTPPEINPCDFILKKIEWRYEKGKPKVSESAVVFGDSSNKLISIAERAINNDIKFSLLFTSPPYYSITDYHADQWLRLWLLGGSENPQSLKDKHKGRFVNKQEYYDLLDNVFGLCAKMMKRESTVYVRTDKREFTFNSTLEILKRHFPNHSVKIVEKPLTKDTKTQTKLFGDKTMKPGEVDIIMSRK,not soluble
12,MIAMAQQDVKPTRSELINLKKKIKLSESGHKLLKMKRDGLILEFFKILNEARNVRTELDAAFAKSTEKINLASAVNGMVAVRSTAFTAKESPEIQLSGHNIMGVVVPKISSTGVRKSLYERGYGIIGTNSYIDETADAYEDLVEKIITAAELETTMKRLLDEIEKTKRRVNALEFKVIPELIDTMKYIRFMLEEMERENTFRLKRVKARMRDLEHHHHHH,not soluble
13,MIANRPQHEKWAVIVNEFGEVGIDGAALLNDELAVAEIAGGCLCCVAGPQMTATVATLLRREKPDRLLIEASGLAHAAGVIDELRAKPLGEALEVAAVLTLVDPRQFIQPDYHRQPLYRDQISIADVLVANKIDTADIPTMEAFRAQAAALFPPKSLVGEVRDGQLDVAWLDAELAAKPRYRPAVLPDNASAWQSAGWTFDPELNFDGERLTRLFDGLPAKVPGLVRAKGVFRVLDSWVWLNWAAGQWGAAQVSWRRDSRFELIAPEFDAAAVEAWLKECLELEHHHHHH,not soluble
14,MIAVIFEVWPAEGEKQHYLDIAAGLRAELETIDGFLSIERFQSISNPEKMLSLSFFRDEQAVRAWRNTLPHRTAQALGRSGVFSDYRLRIAHVIRDYGLLEREEAPADSRDAHPVEGSSLG,not soluble
15,MIAVSFKCRCQILRRLTKDESPYTKSASQTKPPDGALAVRRQSIPEEFKGSTVVELMKKEGTTLGLTVSGGIDKDGKPRVSNLRQGGIAARSDQLDVGDYIKAVNGINLAKFRHDEIISLLKNVGERVVLEVEYELPPVSVQGSSVIFRTVEVTLHKEGNTFGFVIRGGAHDDRNKSRPVVITCVRPGGPADREGTIKPGDRLLSVDGIRLLGTTHAEAMSILKQCGQEAALLIEYDVSVMDSVATASGPLLVEVAKTPGASLGVALTTSMCCNKLVIVIDKIKSASIADRCGALHVGDHILSIDGTSMEYCTLAEATQFLANTTDQVKLEILPHHQTRLALKGPDHAALVSSSFSPTSMSAYSLSSLNMGTLPRSLYSTSPRGTMMRRRLKKKDFKSSLSLASSTVGLAGQVVHTETTEVVLTADPVTGFGIQLQGSVFATETLSSPPLISYIEADSPAERCGVLQIGDRVMAINGIPTEDSTFEEASLLLRDSSITSKVTLEIEFDVAESVIPSSGTFHVKLPKKHNVELGITISSPSSRKPGDPLVISDIKKGSVAHRTGTLELGDKLLAIDNIRLDNCSMEDAVQILQQCEDLVKLKIRKDEDNSDEQESSGAIIYTVELKRYGGPLGITISGTEEPFDPIIISSLTKGGLAERTGAIHIGDRILAINSSSLKGKPLSEAIHLLQMAGETVTLKIKKQTDAQSASSPKKFPISSHLSDLGDVEEDSSPAQKPGKLSDMYPSTVPSVDSAVDSWDGSAIDTSYGTEGTSFQASGYNFNTYDWRSPKQRGSLSPVTKPRSQTYPDVGLSYEDWDRSTASGFAGAADSAETEQEENFWSQALEDLETCGQSGILRELEATIMSGSTMSLNHEAPTPRSQLGRQASFQERSSSRPHYSQTTRSNTLPSDVGRKSVTLRKM,soluble
16,MIAYRSNQGVTRQRQQTKVFKLVSTYDKVAVKNAIRAAYRQVFERDLEPYIINSEFTALESKLSNNEINVKEFIEGLGTSELYMKEFYAPYPNTKVIEMGTKHFLGRAPLNQKEIQQYNQILASQGLKAFIGAMVNGMEYLQTFGEDTVPYRRFPTLPALEHHHHHH,not soluble
17,MICDNCKTREAVILQPHTGRKLCKECFIEDIRKRVEMEARKQEIVNSNKILLAVSGGKDSLVLADTLSQFIHPSRLIAFNINEGIKGYNRNEYVKKLEEYLKDLGIELIKSGFKEEVGFSLDEMLEASLKKKLNVSACTFCGGFRRKLINEAGIKVAADYVATGHNLDDEVQTIVINLIRGDLLRLIRFGDKPLMVSSKFVMRVKPLRKIYEWETTMYAHLKGFEFQETECPYISQKPTLRAKVRDLLYKLEEKKPGTLLRILEQFDEISEKIKKEYRLTNELPNCVICGEPTTPGRMICKNCELLIRSGLMPQEYQKYLPIS,not soluble
18,MIDCLVMAGGQGARMGFREKPLLSVCGQPMLLRVLSALRMACRRIAIVYSRHTPGVKRLCLSGALGAVECIEGPGSYVKDLRLGFSHISTPLLVAPADMPFLNPHHLNLFIDRALADGASIVNLSLRGRGLTGLSVFKHHRGWWRDVETNGCWALDVDTWEDFRRAGELCGGECTGEGLRLELLEHHHHHH,not soluble
